Measurements from patent US20160272683A1 (Novo Nordisk, published 2016).
Numbered stars: 1 amine (or outer) side, 2 acyl side, 3 side chain; on linkers, the order of the positions; unused ones are H or OH. * marks the point of attachment. C20 diacid = O=C(O)CCCCCCCCCCCCCCCCCCC(=O)*; γGlu = O=C(O)[C@H](CCC(=O)[*:2])N[*:1]

B1: [N-terminal(C20 diacid-gGlu), des1, 30S, 31G, 33Y]mimylin (peptide)
peptide: {C20 diacid-γGlu}-ASELSTAALGRLSAELHELATLPRTETGSGSY-NH2
SMILES: CC(C)C[C@H](NC(=O)[C@H](C)NC(=O)[C@H](C)NC(=O)[C@@H](NC(=O)[C@H](CO)NC(=O)[C@H](CC(C)C)NC(=O)[C@H](CCC(=O)O)NC(=O)[C@H](CO)NC(=O)[C@H](C)NC(=O)CC[C@H](NC(=O)CCCCCCCCCCCCCCCCCCC(=O)O)C(=O)O)[C@@H](C)O)C(=O)NCC(=O)N[C@@H](CCCNC(=N)N)C(=O)N[C@@H](CC(C)C)C(=O)N[C@@H](CO)C(=O)N[C@@H](C)C(=O)N[C@@H](CCC(=O)O)C(=O)N[C@@H](CC(C)C)C(=O)N[C@@H](Cc1c[nH]cn1)C(=O)N[C@@H](CCC(=O)O)C(=O)N[C@@H](CC(C)C)C(=O)N[C@@H](C)C(=O)N[C@H](C(=O)N[C@@H](CC(C)C)C(=O)N1CCC[C@H]1C(=O)N[C@@H](CCCNC(=N)N)C(=O)N[C@H](C(=O)N[C@@H](CCC(=O)O)C(=O)N[C@H](C(=O)NCC(=O)N[C@@H](CO)C(=O)NCC(=O)N[C@@H](CO)C(=O)N[C@@H](Cc1ccc(O)cc1)C(N)=O)[C@@H](C)O)[C@@H](C)O)[C@@H](C)O
B2: [N-terminal(C20 diacid-gGlu), des1, 30S, 31G, 33H]mimylin (peptide)
peptide: {C20 diacid-γGlu}-ASELSTAALGRLSAELHELATLPRTETGSGSH-NH2
SMILES: CC(C)C[C@H](NC(=O)[C@H](C)NC(=O)[C@H](C)NC(=O)[C@@H](NC(=O)[C@H](CO)NC(=O)[C@H](CC(C)C)NC(=O)[C@H](CCC(=O)O)NC(=O)[C@H](CO)NC(=O)[C@H](C)NC(=O)CC[C@H](NC(=O)CCCCCCCCCCCCCCCCCCC(=O)O)C(=O)O)[C@@H](C)O)C(=O)NCC(=O)N[C@@H](CCCNC(=N)N)C(=O)N[C@@H](CC(C)C)C(=O)N[C@@H](CO)C(=O)N[C@@H](C)C(=O)N[C@@H](CCC(=O)O)C(=O)N[C@@H](CC(C)C)C(=O)N[C@@H](Cc1c[nH]cn1)C(=O)N[C@@H](CCC(=O)O)C(=O)N[C@@H](CC(C)C)C(=O)N[C@@H](C)C(=O)N[C@H](C(=O)N[C@@H](CC(C)C)C(=O)N1CCC[C@H]1C(=O)N[C@@H](CCCNC(=N)N)C(=O)N[C@H](C(=O)N[C@@H](CCC(=O)O)C(=O)N[C@H](C(=O)NCC(=O)N[C@@H](CO)C(=O)NCC(=O)N[C@@H](CO)C(=O)N[C@@H](Cc1c[nH]cn1)C(N)=O)[C@@H](C)O)[C@@H](C)O)[C@@H](C)O
B3: [N-terminal(C20 diacid-gGlu), des1, 30S, 31G, 33F]mimylin (peptide)
peptide: {C20 diacid-γGlu}-ASELSTAALGRLSAELHELATLPRTETGSGSF-NH2
SMILES: CC(C)C[C@H](NC(=O)[C@H](C)NC(=O)[C@H](C)NC(=O)[C@@H](NC(=O)[C@H](CO)NC(=O)[C@H](CC(C)C)NC(=O)[C@H](CCC(=O)O)NC(=O)[C@H](CO)NC(=O)[C@H](C)NC(=O)CC[C@H](NC(=O)CCCCCCCCCCCCCCCCCCC(=O)O)C(=O)O)[C@@H](C)O)C(=O)NCC(=O)N[C@@H](CCCNC(=N)N)C(=O)N[C@@H](CC(C)C)C(=O)N[C@@H](CO)C(=O)N[C@@H](C)C(=O)N[C@@H](CCC(=O)O)C(=O)N[C@@H](CC(C)C)C(=O)N[C@@H](Cc1c[nH]cn1)C(=O)N[C@@H](CCC(=O)O)C(=O)N[C@@H](CC(C)C)C(=O)N[C@@H](C)C(=O)N[C@H](C(=O)N[C@@H](CC(C)C)C(=O)N1CCC[C@H]1C(=O)N[C@@H](CCCNC(=N)N)C(=O)N[C@H](C(=O)N[C@@H](CCC(=O)O)C(=O)N[C@H](C(=O)NCC(=O)N[C@@H](CO)C(=O)NCC(=O)N[C@@H](CO)C(=O)N[C@@H](Cc1ccccc1)C(N)=O)[C@@H](C)O)[C@@H](C)O)[C@@H](C)O
B4: [N-terminal(C20 diacid-gGlu), des1, 30S, 31G, 33L]mimylin (peptide)
peptide: {C20 diacid-γGlu}-ASELSTAALGRLSAELHELATLPRTETGSGSL-NH2
SMILES: CC(C)C[C@H](NC(=O)[C@H](CO)NC(=O)CNC(=O)[C@H](CO)NC(=O)CNC(=O)[C@@H](NC(=O)[C@H](CCC(=O)O)NC(=O)[C@@H](NC(=O)[C@H](CCCNC(=N)N)NC(=O)[C@@H]1CCCN1C(=O)[C@H](CC(C)C)NC(=O)[C@@H](NC(=O)[C@H](C)NC(=O)[C@H](CC(C)C)NC(=O)[C@H](CCC(=O)O)NC(=O)[C@H](Cc1c[nH]cn1)NC(=O)[C@H](CC(C)C)NC(=O)[C@H](CCC(=O)O)NC(=O)[C@H](C)NC(=O)[C@H](CO)NC(=O)[C@H](CC(C)C)NC(=O)[C@H](CCCNC(=N)N)NC(=O)CNC(=O)[C@H](CC(C)C)NC(=O)[C@H](C)NC(=O)[C@H](C)NC(=O)[C@@H](NC(=O)[C@H](CO)NC(=O)[C@H](CC(C)C)NC(=O)[C@H](CCC(=O)O)NC(=O)[C@H](CO)NC(=O)[C@H](C)NC(=O)CC[C@H](NC(=O)CCCCCCCCCCCCCCCCCCC(=O)O)C(=O)O)[C@@H](C)O)[C@@H](C)O)[C@@H](C)O)[C@@H](C)O)C(N)=O
B5: [N-terminal(C20 diacid-gGlu), des1, 30S, 31G, 33S]mimylin (peptide)
peptide: {C20 diacid-γGlu}-ASELSTAALGRLSAELHELATLPRTETGSGSS-NH2
SMILES: CC(C)C[C@H](NC(=O)[C@H](C)NC(=O)[C@H](C)NC(=O)[C@@H](NC(=O)[C@H](CO)NC(=O)[C@H](CC(C)C)NC(=O)[C@H](CCC(=O)O)NC(=O)[C@H](CO)NC(=O)[C@H](C)NC(=O)CC[C@H](NC(=O)CCCCCCCCCCCCCCCCCCC(=O)O)C(=O)O)[C@@H](C)O)C(=O)NCC(=O)N[C@@H](CCCNC(=N)N)C(=O)N[C@@H](CC(C)C)C(=O)N[C@@H](CO)C(=O)N[C@@H](C)C(=O)N[C@@H](CCC(=O)O)C(=O)N[C@@H](CC(C)C)C(=O)N[C@@H](Cc1c[nH]cn1)C(=O)N[C@@H](CCC(=O)O)C(=O)N[C@@H](CC(C)C)C(=O)N[C@@H](C)C(=O)N[C@H](C(=O)N[C@@H](CC(C)C)C(=O)N1CCC[C@H]1C(=O)N[C@@H](CCCNC(=N)N)C(=O)N[C@H](C(=O)N[C@@H](CCC(=O)O)C(=O)N[C@H](C(=O)NCC(=O)N[C@@H](CO)C(=O)NCC(=O)N[C@@H](CO)C(=O)N[C@@H](CO)C(N)=O)[C@@H](C)O)[C@@H](C)O)[C@@H](C)O
B6: [N-terminal(C20 diacid-gGlu), des1, 30S, 31G, 33G]mimylin (peptide)
peptide: {C20 diacid-γGlu}-ASELSTAALGRLSAELHELATLPRTETGSGSG-NH2
SMILES: CC(C)C[C@H](NC(=O)[C@H](C)NC(=O)[C@H](C)NC(=O)[C@@H](NC(=O)[C@H](CO)NC(=O)[C@H](CC(C)C)NC(=O)[C@H](CCC(=O)O)NC(=O)[C@H](CO)NC(=O)[C@H](C)NC(=O)CC[C@H](NC(=O)CCCCCCCCCCCCCCCCCCC(=O)O)C(=O)O)[C@@H](C)O)C(=O)NCC(=O)N[C@@H](CCCNC(=N)N)C(=O)N[C@@H](CC(C)C)C(=O)N[C@@H](CO)C(=O)N[C@@H](C)C(=O)N[C@@H](CCC(=O)O)C(=O)N[C@@H](CC(C)C)C(=O)N[C@@H](Cc1c[nH]cn1)C(=O)N[C@@H](CCC(=O)O)C(=O)N[C@@H](CC(C)C)C(=O)N[C@@H](C)C(=O)N[C@H](C(=O)N[C@@H](CC(C)C)C(=O)N1CCC[C@H]1C(=O)N[C@@H](CCCNC(=N)N)C(=O)N[C@H](C(=O)N[C@@H](CCC(=O)O)C(=O)N[C@H](C(=O)NCC(=O)N[C@@H](CO)C(=O)NCC(=O)N[C@@H](CO)C(=O)NCC(N)=O)[C@@H](C)O)[C@@H](C)O)[C@@H](C)O
B7: [N-terminal(C20 diacid-gGlu), des1, 30S, 31G, 33A]mimylin (peptide)
peptide: {C20 diacid-γGlu}-ASELSTAALGRLSAELHELATLPRTETGSGSA-NH2
SMILES: CC(C)C[C@H](NC(=O)[C@H](C)NC(=O)[C@H](C)NC(=O)[C@@H](NC(=O)[C@H](CO)NC(=O)[C@H](CC(C)C)NC(=O)[C@H](CCC(=O)O)NC(=O)[C@H](CO)NC(=O)[C@H](C)NC(=O)CC[C@H](NC(=O)CCCCCCCCCCCCCCCCCCC(=O)O)C(=O)O)[C@@H](C)O)C(=O)NCC(=O)N[C@@H](CCCNC(=N)N)C(=O)N[C@@H](CC(C)C)C(=O)N[C@@H](CO)C(=O)N[C@@H](C)C(=O)N[C@@H](CCC(=O)O)C(=O)N[C@@H](CC(C)C)C(=O)N[C@@H](Cc1c[nH]cn1)C(=O)N[C@@H](CCC(=O)O)C(=O)N[C@@H](CC(C)C)C(=O)N[C@@H](C)C(=O)N[C@H](C(=O)N[C@@H](CC(C)C)C(=O)N1CCC[C@H]1C(=O)N[C@@H](CCCNC(=N)N)C(=O)N[C@H](C(=O)N[C@@H](CCC(=O)O)C(=O)N[C@H](C(=O)NCC(=O)N[C@@H](CO)C(=O)NCC(=O)N[C@@H](CO)C(=O)N[C@@H](C)C(N)=O)[C@@H](C)O)[C@@H](C)O)[C@@H](C)O

Assays:
[1] = molecular target: T1, human amylin 3(a) receptor (human calcitonin receptor co-expressed with RAMP-3) on BHK570/CRE-luc cells (human, UniProt P30988 25-474; O60896 24-148); test: cell-based or functional assay
T1 sequence (looked up) 1: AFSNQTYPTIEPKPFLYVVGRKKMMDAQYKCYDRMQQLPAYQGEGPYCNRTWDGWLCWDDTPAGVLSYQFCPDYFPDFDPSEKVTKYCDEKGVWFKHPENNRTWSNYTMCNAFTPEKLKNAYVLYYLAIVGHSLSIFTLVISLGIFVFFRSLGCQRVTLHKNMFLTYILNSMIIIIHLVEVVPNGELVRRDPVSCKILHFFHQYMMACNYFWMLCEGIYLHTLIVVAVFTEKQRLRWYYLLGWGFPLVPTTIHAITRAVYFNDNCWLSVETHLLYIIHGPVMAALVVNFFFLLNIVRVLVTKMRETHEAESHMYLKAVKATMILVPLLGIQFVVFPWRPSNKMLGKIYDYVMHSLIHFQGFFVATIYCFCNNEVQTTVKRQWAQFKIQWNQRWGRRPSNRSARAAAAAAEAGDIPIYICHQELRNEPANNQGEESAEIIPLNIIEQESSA
T1 sequence (looked up) 2: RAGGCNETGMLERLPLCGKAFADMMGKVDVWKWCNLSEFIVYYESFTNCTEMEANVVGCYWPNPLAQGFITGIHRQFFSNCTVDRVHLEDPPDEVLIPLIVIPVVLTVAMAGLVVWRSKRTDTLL

[2] = molecular target: T2, human calcitonin receptor on BHK570/CRE-luc cells (human, UniProt P30988 25-474); test: cell-based or functional assay
T2 sequence (looked up): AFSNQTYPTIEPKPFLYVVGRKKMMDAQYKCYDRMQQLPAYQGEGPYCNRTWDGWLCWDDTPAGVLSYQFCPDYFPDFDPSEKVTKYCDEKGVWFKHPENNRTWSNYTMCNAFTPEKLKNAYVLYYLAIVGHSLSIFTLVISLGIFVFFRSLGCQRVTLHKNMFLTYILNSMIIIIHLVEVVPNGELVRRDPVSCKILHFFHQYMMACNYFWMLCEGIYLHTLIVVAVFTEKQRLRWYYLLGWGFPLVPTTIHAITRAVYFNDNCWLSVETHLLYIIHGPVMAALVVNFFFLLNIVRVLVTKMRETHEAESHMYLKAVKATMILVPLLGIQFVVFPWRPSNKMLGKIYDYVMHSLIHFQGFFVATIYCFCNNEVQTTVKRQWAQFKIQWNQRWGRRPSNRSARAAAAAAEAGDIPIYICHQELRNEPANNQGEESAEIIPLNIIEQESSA

hAmylin-R funct. EC50 (pM), tested with HSA [1] [pM]	hCTR funct. EC50 (pM), tested with HSA [2] [pM]	Binder
62	49	B1
125	72	B2
94	73	B3
168	78	B4
328	154	B5
435	239	B6
265	102	B7
